In publication PMC12025097, “Elucidation of Expression Patterns and Functional Properties of Archaerhodopsin Derived from Halorubrum sp. Ejinoor” (Biology, 2025):

Assays:
BR = biological target: T1, BR (Halobacterium salinarum, UniProt P02945); assay: HPLC of chromophore extracted from purified protein; assay type: binding; conditions: covalent; Schiff base to Lys216; dark- and light-adapted; 0.05% DDM, 10 mM HEPES, pH 7.5
T1 construct: gene bop; native BR from Hs by sucrose density gradient; text also mentions Ni-NTA purification and a vector-cloned BR from E. coli
T1 sequence (P02945 14-262): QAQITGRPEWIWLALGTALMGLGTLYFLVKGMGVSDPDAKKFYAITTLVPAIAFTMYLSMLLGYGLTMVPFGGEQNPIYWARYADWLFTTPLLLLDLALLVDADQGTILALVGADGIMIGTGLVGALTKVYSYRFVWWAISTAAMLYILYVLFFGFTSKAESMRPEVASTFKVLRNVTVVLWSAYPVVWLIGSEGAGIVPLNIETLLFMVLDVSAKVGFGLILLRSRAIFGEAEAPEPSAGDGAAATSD

Asp95 = Asp95 (UniProt position 95, YARYADWLFTT); assay: UV-vis; conditions: not stated (six-component buffer said to keep ionic strength constant); citric acid/MES/HEPES/MOPS/CHES/CAPS, each 10 mM; retinal-bound, detergent-solubilised trimer; steady-state titration; light or dark adaptation state not stated
Asp85 = Asp85 (UniProt position 98, WARYADWLFTT); conditions: cited from earlier work
[1] = biological target: Bacteriorhodopsin (Halobacterium salinarum) (UniProt P02945); assay: SEC; Superdex 200 10/300 GL, 25 °C, 10 mM HEPES pH 7.5, 100 mM NaCl, 0.05% DDM, 0.5 mL/min, detection at 280 and 560 nm; apparent mass from calibration standards, trimer deduced after allowing for bound DDM
[2] = biological target: Halorubrum sp. Ejinoor Archaerhodopsin (Halorubrum sp. Ejinoor); assay: as above

In the case of `CC1=C(/C=C/C(C)=C/C=C/C(C)=C\C=O)C(C)(C)CCC1` [13-cis retinal], the “HPLC of chromophore extracted from purified protein” value (BR) is reported as “both HeAR and BR contain only two retinal chromophore isomers: All-trans and 13-cis”.
In the case of `CC1=C(/C=C/C(C)=C/C=C/C(C)=C/C=O)C(C)(C)CCC1` [All-trans retinal], the “HPLC of chromophore extracted from purified protein” value (BR) is reported as “both HeAR and BR contain only two retinal chromophore isomers: All-trans and 13-cis”.
Molecule “Archaerhodopsin HeAR (Halorubrum sp. Ejinoor)” has a pKa (Asp95) of 3.5 ± 0.1.
For “Bacteriorhodopsin (BR) (Halobacterium salinarum)”, the pKa (Asp85) is listed as about 2.6.
“Bacteriorhodopsin (from UniProt P02945 14-262) (natural protein)” gave a stoichiometry N [1] of 3.
In the case of “Halorubrum sp. Ejinoor Archaerhodopsin (natural protein)”, the stoichiometry N [2] is reported as 3.
